Source: IntAct's records for PubMed 29997244

B1: DnaJ homolog subfamily C member 5 (Homo sapiens), Q9H3Z4 (parent)
chain: MADQRQRSLSTSGESLYHVLGLDKNATSDDIKKSYRKLALKYHPDKNPDNPEAADKFKEINNAHAILTDATKRNIYDKYGSLGLYVAEQFGEENVNTYFVLSSWWAKALFVFCGLLTCCYCCCCLCCCFNCCCGKCKPKAPEGEETEFYVSPEDLEAQLQSDEREATDTPIVIQPASATETTQLTADSHPSYHTDGFN
partner: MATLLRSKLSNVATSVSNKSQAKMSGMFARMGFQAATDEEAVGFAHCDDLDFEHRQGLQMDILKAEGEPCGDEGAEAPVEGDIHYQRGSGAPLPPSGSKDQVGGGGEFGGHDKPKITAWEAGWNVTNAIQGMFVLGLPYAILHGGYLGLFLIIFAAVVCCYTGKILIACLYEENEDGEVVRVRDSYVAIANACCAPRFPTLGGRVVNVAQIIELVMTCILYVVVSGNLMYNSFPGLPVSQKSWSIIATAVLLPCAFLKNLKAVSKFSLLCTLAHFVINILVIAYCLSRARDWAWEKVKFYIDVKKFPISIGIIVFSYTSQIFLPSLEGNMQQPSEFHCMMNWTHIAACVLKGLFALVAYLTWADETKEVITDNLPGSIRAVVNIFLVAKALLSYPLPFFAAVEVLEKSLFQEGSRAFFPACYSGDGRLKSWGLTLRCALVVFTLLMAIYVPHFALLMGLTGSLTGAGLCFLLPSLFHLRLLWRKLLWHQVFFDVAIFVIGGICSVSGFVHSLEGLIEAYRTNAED
B2: DnaJ homolog subfamily C member 5 (Homo sapiens), Q9H3Z4 (parent)
chain: B1 chain
partner: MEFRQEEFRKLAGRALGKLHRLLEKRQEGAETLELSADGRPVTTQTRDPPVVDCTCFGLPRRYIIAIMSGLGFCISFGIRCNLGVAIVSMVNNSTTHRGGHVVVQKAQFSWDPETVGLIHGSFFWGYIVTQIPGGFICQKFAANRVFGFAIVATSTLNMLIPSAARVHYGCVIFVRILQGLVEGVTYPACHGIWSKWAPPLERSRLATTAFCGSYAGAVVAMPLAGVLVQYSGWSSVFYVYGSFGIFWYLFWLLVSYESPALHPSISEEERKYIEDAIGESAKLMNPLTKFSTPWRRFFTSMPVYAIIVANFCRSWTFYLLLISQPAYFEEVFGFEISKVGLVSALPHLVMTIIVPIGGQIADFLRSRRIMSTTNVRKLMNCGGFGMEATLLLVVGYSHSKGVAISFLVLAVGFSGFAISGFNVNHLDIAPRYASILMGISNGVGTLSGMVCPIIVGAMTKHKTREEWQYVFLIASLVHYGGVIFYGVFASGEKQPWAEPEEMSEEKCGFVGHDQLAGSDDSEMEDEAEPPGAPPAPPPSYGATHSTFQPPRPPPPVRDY
B3: DnaJ homolog subfamily C member 5 (Homo sapiens), Q9H3Z4 (parent)
chain: B1 chain
partner: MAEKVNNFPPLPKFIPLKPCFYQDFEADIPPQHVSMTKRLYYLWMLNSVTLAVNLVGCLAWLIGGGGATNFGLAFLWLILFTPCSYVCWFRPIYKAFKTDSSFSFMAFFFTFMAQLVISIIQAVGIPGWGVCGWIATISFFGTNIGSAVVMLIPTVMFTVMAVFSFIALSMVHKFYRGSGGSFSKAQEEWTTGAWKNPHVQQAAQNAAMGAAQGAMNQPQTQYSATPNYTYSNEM
B4: DnaJ homolog subfamily C member 5 (Homo sapiens), Q9H3Z4 (parent)
chain: B1 chain
partner: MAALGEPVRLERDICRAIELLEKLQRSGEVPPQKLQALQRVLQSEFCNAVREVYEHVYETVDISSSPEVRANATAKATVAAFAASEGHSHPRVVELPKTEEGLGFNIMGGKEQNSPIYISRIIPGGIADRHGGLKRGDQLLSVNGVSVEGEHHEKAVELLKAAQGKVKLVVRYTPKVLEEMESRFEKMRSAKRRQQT
B5: DnaJ homolog subfamily C member 5 (Homo sapiens), Q9H3Z4 (parent)
chain: B1 chain
partner: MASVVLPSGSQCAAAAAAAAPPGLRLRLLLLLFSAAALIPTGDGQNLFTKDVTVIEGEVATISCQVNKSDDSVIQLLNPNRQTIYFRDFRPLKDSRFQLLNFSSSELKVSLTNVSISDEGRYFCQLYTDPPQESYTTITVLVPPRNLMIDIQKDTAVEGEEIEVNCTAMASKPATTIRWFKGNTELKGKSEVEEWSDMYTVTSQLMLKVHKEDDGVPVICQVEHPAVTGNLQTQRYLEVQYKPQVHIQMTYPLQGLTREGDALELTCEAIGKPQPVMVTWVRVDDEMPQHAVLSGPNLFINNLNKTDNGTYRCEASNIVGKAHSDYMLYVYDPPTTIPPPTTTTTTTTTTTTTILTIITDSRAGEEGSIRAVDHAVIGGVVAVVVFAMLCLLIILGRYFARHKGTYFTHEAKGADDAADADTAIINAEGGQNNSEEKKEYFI
B6: DnaJ homolog subfamily C member 5 (Homo sapiens), Q9H3Z4 (parent)
chain: B1 chain
partner: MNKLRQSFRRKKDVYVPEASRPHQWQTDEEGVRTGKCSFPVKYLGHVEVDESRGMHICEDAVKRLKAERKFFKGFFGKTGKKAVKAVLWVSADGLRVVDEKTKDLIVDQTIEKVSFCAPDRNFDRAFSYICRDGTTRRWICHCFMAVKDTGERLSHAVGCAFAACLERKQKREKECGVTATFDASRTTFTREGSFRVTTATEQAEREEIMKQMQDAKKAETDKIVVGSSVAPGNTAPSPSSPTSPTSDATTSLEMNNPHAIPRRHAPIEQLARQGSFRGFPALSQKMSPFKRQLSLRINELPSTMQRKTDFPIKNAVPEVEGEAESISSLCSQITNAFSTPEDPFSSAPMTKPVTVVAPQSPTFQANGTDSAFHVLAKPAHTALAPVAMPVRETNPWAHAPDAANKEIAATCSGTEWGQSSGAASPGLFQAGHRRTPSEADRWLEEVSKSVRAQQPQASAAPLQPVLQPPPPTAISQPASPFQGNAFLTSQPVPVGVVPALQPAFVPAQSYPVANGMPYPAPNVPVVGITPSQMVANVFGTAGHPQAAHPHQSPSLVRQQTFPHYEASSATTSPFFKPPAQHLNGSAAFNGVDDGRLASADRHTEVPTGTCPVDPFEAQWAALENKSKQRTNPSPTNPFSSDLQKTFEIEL
B7: DnaJ homolog subfamily C member 5 (Homo sapiens), Q9H3Z4 (parent)
chain: B1 chain
partner: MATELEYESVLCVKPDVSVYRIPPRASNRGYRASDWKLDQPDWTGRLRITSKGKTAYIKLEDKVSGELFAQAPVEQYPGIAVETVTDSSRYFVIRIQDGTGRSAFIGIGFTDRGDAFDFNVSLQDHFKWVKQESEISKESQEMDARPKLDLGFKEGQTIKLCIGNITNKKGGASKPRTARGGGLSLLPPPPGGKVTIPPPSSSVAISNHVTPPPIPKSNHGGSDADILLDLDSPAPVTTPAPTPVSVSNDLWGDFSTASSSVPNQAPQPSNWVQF

Variants of: B1
Settings: with viaat_human SLC32A1, Q9H598

Q: L115R was tested. Which “effect of a mutation on the interaction” value did it give?
A: Its value is “with no effect”.

Variants of: B2
Settings: with vglu1_human SLC17A7, Q9P2U7

Q: For L115R, which “effect of a mutation on the interaction” value is on record?
A: Its value is “with no effect”.

Variants of: B3
Settings: with scam5_human SCAMP5, Q8TAC9

Q: With L115R as the variant, how does the “effect of a mutation on the interaction” value read?
A: The value was “with no effect”.

Variants of: B4
Settings: with lin7c_human LIN7C

Q: For L115R, which “effect of a mutation on the interaction” value is on record?
A: The value was “with no effect”.

Variants of: B5
Settings: with cadm1_human CADM1, Q9BY67

Q: L115R was tested. Which “effect of a mutation on the interaction” value did it give?
A: Its value is “decreasing interaction strength”.

Variants of: B6
Settings: with numb_human NUMB

Q: For L115R, which “effect of a mutation on the interaction” value is on record?
A: The value was “with no effect”.

Variants of: B7
Settings: with necp1_human NECAP1, Q8NC96

Q: With L115R as the variant, how does the “effect of a mutation on the interaction” value read?
A: The value was “with no effect”.
